The assay addresses T1, His-tagged recombinant protein containing the forkhead-associated (FHA) domain of Kif1B (residues 367-999) (human, UniProt O60333-2 367-999).
T1 construct: cloned into pRSET-A; Vector pRSET-A; also called Kif1B FHA domain; His-Kif1B; source: E. coli BL21pLysS, purified
T1 sequence (looked up): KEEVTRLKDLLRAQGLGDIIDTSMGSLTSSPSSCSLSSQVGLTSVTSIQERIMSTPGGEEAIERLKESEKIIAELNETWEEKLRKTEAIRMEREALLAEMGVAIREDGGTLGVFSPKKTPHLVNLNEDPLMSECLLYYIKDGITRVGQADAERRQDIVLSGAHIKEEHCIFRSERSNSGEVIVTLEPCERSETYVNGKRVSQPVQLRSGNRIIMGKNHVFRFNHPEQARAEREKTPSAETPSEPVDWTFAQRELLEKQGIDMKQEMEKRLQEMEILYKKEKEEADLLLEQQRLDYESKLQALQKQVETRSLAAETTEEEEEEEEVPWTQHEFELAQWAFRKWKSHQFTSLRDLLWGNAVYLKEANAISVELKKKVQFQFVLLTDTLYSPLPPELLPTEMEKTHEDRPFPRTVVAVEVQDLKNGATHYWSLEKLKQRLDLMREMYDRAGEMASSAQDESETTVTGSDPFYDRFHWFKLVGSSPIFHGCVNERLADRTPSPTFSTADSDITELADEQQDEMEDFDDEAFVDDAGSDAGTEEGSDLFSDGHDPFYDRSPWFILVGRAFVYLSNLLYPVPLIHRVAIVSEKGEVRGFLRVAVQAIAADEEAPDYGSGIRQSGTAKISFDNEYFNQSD
Description: pull-down; purified GST-SAM domain on glutathione-agarose beads incubated 2 h with recombinant His-tagged Kif1B fusion proteins; immunoblot with anti-GST and anti-His. The note with it: both partners purified. A general note: Immunoblotting shows a protein as a band on a membrane.

B1: DLC2 SAM domain (residues 1-130) fused to GST (domain or fragment, human, UniProt Q9Y3M8-1 1-130, looked up)
chain: MFSQVPRTPASGCYYLNSMTPEGQEMYLRFDQTTRRSPYRMSRILARHQLVTKIQQEIEAKEACDWLRAAGFPQYAQLYEDSQFPINIVAVKNDHDFLEKDLVEPLCRRLNTLNKCASMKLDVNFQRKKG
notes: cloned into pGEX4T3; Vector pGEX4T3; also called SAM domain construct; GST-fusion protein containing the SAM domain; source: E. coli BL21pLysS, purified (glutathione-agarose)
On to B1, for which the binding result was “binds”.

Source of the values: article PMC4284802, “The tumour suppressor DLC2 ensures mitotic fidelity by coordinating spindle positioning and cell–cell adhesion” (Nature Communications, 2014).
